Lowest amount detected and detection limit data for two molecules are collected here from US20070218516A1 (UNITED STATES OF AMERICA AS REPRESENTED BY THE SERCRETARY …, published 2007).

For experiment [1], the target named is T1, botulinum neurotoxin serotype B (BoNT/B) (Clostridium botulinum, UniProt P10844 2-1291).
T1 sequence: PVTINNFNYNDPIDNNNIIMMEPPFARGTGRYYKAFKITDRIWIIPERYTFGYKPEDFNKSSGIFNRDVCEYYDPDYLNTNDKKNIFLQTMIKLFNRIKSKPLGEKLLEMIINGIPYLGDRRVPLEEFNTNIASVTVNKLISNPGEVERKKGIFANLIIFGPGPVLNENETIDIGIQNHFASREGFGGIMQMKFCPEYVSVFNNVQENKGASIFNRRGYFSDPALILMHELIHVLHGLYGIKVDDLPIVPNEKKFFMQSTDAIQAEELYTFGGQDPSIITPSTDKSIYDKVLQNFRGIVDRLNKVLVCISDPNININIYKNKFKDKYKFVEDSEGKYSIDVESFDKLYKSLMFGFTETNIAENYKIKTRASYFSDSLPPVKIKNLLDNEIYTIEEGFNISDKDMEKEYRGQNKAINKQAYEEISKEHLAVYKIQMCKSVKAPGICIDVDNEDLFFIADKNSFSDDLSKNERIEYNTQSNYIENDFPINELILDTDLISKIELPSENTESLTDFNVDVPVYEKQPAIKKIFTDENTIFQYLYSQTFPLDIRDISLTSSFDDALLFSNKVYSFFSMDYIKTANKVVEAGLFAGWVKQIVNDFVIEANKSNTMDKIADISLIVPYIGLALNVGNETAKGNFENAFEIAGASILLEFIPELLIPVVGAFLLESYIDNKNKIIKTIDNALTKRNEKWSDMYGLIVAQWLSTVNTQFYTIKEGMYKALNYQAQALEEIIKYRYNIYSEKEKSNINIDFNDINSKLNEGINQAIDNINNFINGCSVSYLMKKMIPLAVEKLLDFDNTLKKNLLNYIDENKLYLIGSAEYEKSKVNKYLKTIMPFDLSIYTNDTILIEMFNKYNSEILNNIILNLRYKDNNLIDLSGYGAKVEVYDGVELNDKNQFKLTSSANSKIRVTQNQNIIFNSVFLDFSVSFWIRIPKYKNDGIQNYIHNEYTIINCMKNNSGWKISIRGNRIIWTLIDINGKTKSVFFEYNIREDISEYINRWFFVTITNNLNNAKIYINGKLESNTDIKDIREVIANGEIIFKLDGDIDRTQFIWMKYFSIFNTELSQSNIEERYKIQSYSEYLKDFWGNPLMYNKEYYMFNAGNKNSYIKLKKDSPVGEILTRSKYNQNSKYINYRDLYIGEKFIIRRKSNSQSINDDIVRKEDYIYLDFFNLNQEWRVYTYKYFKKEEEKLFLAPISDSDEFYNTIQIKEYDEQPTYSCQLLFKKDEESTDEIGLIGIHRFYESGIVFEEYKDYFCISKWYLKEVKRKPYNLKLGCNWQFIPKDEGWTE
The experiment in a line: capture ELISA titration, antibody at 5.0 ug/ml.

The target of experiment [2] is T2, botulinum neurotoxin serotype A (BoNT/A) (Clostridium botulinum, UniProt P0DPI0 2-1296). Briefly: capture ELISA titration, antibody at 5.0 ug/ml.
Experiment [3] has as its target T1, botulinum neurotoxin serotype B (BoNT/B). Briefly: capture ELISA, antibody coated at 5.0 ug/ml.
The target in experiment [4] is T2, botulinum neurotoxin serotype A (BoNT/A). The experiment in a line: capture ELISA, antibody coated at 5.0 ug/ml.
Experiment [5] deals with T1, botulinum neurotoxin serotype B (BoNT/B). The experiment in a line: direct ELISA, […], antibody at 1.25 ug/ml.
The target of experiment [6] is T2, botulinum neurotoxin serotype A (BoNT/A). Briefly: direct ELISA, […], antibody at 1.25 ug/ml.

T2 sequence (P0DPI0 2-1296 limits assumed): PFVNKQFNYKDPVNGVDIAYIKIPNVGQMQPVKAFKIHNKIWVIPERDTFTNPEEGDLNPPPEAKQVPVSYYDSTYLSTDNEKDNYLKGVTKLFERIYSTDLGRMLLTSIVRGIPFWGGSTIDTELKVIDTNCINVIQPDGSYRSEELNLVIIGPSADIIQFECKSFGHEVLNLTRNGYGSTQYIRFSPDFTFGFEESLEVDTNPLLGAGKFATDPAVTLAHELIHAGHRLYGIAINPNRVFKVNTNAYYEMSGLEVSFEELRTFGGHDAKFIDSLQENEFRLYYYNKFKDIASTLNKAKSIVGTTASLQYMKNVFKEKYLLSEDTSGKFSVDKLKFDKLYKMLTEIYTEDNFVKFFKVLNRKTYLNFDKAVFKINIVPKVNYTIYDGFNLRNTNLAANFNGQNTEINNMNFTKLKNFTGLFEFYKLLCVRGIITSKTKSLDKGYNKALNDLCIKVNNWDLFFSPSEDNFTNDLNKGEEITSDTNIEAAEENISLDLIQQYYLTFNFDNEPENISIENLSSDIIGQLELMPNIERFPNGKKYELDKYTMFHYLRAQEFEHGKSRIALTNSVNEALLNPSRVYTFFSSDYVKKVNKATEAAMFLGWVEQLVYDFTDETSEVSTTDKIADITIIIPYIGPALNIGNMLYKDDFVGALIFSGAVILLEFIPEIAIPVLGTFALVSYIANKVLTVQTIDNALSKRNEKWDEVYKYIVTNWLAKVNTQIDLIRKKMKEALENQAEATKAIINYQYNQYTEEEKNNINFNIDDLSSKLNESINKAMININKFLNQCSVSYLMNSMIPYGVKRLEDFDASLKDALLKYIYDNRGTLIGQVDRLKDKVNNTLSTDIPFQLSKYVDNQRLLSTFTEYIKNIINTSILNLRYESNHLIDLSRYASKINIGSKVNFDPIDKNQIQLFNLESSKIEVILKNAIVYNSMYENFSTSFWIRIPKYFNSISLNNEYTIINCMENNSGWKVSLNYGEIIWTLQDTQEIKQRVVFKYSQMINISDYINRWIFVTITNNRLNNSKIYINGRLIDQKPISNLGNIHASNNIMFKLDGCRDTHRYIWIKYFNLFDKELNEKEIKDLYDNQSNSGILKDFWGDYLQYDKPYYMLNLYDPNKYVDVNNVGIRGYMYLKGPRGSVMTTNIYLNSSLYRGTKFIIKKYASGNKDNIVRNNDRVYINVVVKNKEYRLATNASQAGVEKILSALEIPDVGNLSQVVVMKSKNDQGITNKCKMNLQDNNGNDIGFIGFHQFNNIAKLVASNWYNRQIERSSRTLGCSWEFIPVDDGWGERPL

B1: rHu-BF5-A6 (antibody, V domains shown)
VH: EVQLQQSGAELVKPGASVKLSCTASGFNIKDTFMHWVKQRPEQGLEWIGRIDPANGNTEYDPKFQGKATITADTSSNTVNLQLSSLTSEDTAVYYCASGGELGFPYWGQGTLVTVSA
VL: DIQMTQSPASLSASVGETVTITCRASGNIHNYLAWYQQKQGKSPQLLVYNAKTLADGVPSRFSGSGSGTQYSLKINSLQPEDFGSYYCQHFWSTPWTFGGG
For B1, the lowest amount detected in experiment [1] turned out to be 0.4 ng; in experiment [2] it was 0.3 ng. Moreover, the detection limit in experiment [3] was 0.35 ng; in experiment [4] it was 0.29 ng; in experiment [5], 11.8 ng; in experiment [6], 9.4 ng.

B2: rHu-BF5-B1 (antibody, V domains shown)
VH: EVQLQQSGAELVKPGASVKLSCTASGFNIKDTFMHWVKQRPEQGLEWIGRIDPANGNTEYDPKFQGKATITADTSSNTVNLQLSSLTSEDTAVYYCASGGELGFPYWGQGTLVTVSA
VL: DIQMTQSPASLSASVGETVTITCRASGNIHNYLAWYQQKQGKSPQLLVYNAKTLADGVPSRFSGSGSGTQYSLKINSLQPEDFGSYYCQHFWSTPWTFGGG
As for B2, the figures for the lowest amount detected in experiment [1] and in experiment [2] were 0.4 ng and 0.3 ng, respectively. Further, the detection limit in experiment [3] was determined as 0.35 ng; in experiment [4], 0.29 ng; in experiment [5], 11.8 ng; in experiment [6] it was 9.4 ng.
